Source: PMC8897147

T1: growth hormone-releasing hormone receptor-Rluc8, Q02643
T1 chain: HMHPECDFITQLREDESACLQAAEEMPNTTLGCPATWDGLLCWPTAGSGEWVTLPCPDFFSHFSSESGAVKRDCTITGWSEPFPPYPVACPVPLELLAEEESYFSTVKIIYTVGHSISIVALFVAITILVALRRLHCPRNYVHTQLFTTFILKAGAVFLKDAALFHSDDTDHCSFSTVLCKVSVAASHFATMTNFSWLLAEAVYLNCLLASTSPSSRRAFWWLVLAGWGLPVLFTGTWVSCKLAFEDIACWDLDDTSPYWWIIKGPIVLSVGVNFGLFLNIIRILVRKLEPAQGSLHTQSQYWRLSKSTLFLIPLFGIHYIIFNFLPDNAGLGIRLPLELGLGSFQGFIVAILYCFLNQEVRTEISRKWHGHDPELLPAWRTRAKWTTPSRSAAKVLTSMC

T2: glucagon-like peptide-1 receptor-Rluc8, P43220
T2 chain: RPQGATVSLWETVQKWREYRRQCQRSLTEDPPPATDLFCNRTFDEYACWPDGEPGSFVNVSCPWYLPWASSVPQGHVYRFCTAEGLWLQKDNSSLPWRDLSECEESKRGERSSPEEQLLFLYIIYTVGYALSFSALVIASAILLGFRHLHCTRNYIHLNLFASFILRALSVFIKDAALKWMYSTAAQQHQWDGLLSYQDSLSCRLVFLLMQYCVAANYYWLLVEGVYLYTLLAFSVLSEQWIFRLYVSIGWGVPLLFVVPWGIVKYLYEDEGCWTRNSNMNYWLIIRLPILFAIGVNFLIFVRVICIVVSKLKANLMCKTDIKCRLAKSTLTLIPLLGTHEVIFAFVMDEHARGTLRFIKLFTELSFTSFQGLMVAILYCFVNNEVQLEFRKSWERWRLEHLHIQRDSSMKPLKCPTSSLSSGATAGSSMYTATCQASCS

B1: RAMP3-Ypet (receptor activity-modulating protein 3) (natural protein)
chain: RAGGCNETGMLERLPLCGKAFADMMGKVDVWKWCNLSEFIVYYESFTNCTEMEANVVGCYWPNPLAQGFITGIHRQFFSNCTVDRVHLEDPPDEVLIPLIVIPVVLTVAMAGLVVWRSKRTDTLL
B2: RAMP1-Ypet (receptor activity-modulating protein 1), O60894 27-148 (natural protein)
chain: CQEANYGALLRELCLTQFQVDMEAVGETLWCDWGRTIRSYRELADCTWHMAEKLGCFWPNAEVDRFFLAVHGRYFRSCPISGRAVRDPPGSILYPFIVVPITVTLLVTALVVWQSKRTEGIV
B3: RAMP2-Ypet (receptor activity-modulating protein 2), O60895 43-175 (natural protein)
chain: QPLPTTGTPGSEGGTVKNYETAVQFCWNHYKDQMDPIEKDWCDWAMISRPYSTLRDCLEHFAELFDLGFPNPLAERIIFETHQIHFANCSLVQPTFSDPPEDVLLAMIIAPICLIPFLITLVVWRSKDSEAQA

Tests used:
Experiment in all cases: FRET or BRET
[1] = target: SV1, splice variant of GHRHR, -Rluc8
[2] = target: T1, growth hormone-releasing hormone …; details: remark: other sources report otherwise
[3] = target: secretin receptor-Rluc8, P47872; details: remark: other sources report otherwise
Chain of secretin receptor-Rluc8, P47872 (P47872 23-440): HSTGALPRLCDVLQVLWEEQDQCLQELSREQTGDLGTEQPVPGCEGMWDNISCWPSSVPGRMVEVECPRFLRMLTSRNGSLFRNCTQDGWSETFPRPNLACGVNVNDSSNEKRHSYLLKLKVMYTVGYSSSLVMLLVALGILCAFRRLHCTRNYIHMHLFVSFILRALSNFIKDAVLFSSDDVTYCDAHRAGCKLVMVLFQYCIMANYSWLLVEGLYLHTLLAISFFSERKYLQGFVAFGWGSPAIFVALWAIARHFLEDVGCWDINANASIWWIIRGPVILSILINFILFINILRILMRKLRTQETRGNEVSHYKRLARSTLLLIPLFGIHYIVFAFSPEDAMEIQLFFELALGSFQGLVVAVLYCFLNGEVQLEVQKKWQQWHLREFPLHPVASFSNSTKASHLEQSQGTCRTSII

[4] = target: T2, glucagon-like peptide-1 receptor-Rluc8, …; details: remark: other sources report otherwise

Binder | BRET50 (Kd) (intensity ratio of RAMP:receptor) [1] | BRET50 (Kd) (intensity ratio of RAMP:receptor) [2] | BRET50 (Kd) (intensity ratio of RAMP:receptor) [3] | BRET50 (Kd) (intensity ratio of RAMP:receptor) [4]
B1 | 5.98 | – | – | –
B2 | – | 2.43 | 1.3 | 10.9
B3 | – | – | 2.41 | 2.23
